Source: PMC10070494, “WSSV exploits AMPK to activate mTORC2 signaling for proliferation by enhancing aerobic glycolysis”

Target: rGST (UniProt P08515 1-218)
Assay: EMSA; 1 and 3 μg rGST; Chemiluminescent EMSA Kit (Beyotime), buffer, salt and pH not stated; competitor 10 min then biotin probe 20 min at 25 °C; native 6% polyacrylamide gel
Details: protein: recombinant; chain copies: 2; blunt

Sequence of rGST (P08515 whole entry): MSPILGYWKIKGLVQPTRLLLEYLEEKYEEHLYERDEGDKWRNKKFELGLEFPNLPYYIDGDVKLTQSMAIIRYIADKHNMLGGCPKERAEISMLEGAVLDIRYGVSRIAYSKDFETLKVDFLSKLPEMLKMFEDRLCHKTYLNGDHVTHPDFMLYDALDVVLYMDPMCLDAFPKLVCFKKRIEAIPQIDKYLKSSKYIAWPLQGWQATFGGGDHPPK

B1: HK-WT probe (dsDNA)
DNA 1: CAAATGACTAGAACGTGCGACATTAGTGAA
DNA 2: TTCACTAATGTCGCACGTTCTAGTCATTTG
Question: Does B1 bind?
Answer: Result: no binding
